Columns and labels:
TRPA1 = molecular target: T1, TRPA1 (Homo sapiens, UniProt O75762); experiment: Ion channel panel (IonWorks Barracuda): TRPA1; format: cell-based; settings: 100% = no change, <100% = inhibition
T1 construct: host or cells: HEK293 or CHO
In short: (§1)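 Transfected HEK293 or CHO cells were exposed for at least 5 min to peptides at 200 nM and 20 μM final, tested in duplicate, in HEPES-buffered physiological saline. Activation was taken as peptide-plus-agonist current over control current ×100, and inhibition as 1 minus that ratio ×100. Each channel's control was its own reference compound.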

GABA = experiment: Ion channel panel (IonWorks Barracuda): GABA; format: cell-based; settings: 100% = no change, <100% = inhibition
In short: as §1

Kir2.1 = molecular target: T2, Kir2.1 (Homo sapiens, UniProt P63252); experiment: Ion channel panel (IonWorks Barracuda): Kir2.1; format: cell-based; settings: 100% = no change, <100% = inhibition
T2 construct: host or cells: HEK293 or CHO
In short: as §1

Nav1.5 = Nav1.5 (Homo sapiens, UniProt Q14524); experiment: in vitro; settings: 100% = no change; for Activity of Nav1.5 with peptide, expressed as a percentage of the reference compound: peptide at 0.2 μM; for Activity of Nav1.5 with peptide (percentage of the reference compound): peptide at 20 μM
Chain of Nav1.5 (Q14524 whole entry): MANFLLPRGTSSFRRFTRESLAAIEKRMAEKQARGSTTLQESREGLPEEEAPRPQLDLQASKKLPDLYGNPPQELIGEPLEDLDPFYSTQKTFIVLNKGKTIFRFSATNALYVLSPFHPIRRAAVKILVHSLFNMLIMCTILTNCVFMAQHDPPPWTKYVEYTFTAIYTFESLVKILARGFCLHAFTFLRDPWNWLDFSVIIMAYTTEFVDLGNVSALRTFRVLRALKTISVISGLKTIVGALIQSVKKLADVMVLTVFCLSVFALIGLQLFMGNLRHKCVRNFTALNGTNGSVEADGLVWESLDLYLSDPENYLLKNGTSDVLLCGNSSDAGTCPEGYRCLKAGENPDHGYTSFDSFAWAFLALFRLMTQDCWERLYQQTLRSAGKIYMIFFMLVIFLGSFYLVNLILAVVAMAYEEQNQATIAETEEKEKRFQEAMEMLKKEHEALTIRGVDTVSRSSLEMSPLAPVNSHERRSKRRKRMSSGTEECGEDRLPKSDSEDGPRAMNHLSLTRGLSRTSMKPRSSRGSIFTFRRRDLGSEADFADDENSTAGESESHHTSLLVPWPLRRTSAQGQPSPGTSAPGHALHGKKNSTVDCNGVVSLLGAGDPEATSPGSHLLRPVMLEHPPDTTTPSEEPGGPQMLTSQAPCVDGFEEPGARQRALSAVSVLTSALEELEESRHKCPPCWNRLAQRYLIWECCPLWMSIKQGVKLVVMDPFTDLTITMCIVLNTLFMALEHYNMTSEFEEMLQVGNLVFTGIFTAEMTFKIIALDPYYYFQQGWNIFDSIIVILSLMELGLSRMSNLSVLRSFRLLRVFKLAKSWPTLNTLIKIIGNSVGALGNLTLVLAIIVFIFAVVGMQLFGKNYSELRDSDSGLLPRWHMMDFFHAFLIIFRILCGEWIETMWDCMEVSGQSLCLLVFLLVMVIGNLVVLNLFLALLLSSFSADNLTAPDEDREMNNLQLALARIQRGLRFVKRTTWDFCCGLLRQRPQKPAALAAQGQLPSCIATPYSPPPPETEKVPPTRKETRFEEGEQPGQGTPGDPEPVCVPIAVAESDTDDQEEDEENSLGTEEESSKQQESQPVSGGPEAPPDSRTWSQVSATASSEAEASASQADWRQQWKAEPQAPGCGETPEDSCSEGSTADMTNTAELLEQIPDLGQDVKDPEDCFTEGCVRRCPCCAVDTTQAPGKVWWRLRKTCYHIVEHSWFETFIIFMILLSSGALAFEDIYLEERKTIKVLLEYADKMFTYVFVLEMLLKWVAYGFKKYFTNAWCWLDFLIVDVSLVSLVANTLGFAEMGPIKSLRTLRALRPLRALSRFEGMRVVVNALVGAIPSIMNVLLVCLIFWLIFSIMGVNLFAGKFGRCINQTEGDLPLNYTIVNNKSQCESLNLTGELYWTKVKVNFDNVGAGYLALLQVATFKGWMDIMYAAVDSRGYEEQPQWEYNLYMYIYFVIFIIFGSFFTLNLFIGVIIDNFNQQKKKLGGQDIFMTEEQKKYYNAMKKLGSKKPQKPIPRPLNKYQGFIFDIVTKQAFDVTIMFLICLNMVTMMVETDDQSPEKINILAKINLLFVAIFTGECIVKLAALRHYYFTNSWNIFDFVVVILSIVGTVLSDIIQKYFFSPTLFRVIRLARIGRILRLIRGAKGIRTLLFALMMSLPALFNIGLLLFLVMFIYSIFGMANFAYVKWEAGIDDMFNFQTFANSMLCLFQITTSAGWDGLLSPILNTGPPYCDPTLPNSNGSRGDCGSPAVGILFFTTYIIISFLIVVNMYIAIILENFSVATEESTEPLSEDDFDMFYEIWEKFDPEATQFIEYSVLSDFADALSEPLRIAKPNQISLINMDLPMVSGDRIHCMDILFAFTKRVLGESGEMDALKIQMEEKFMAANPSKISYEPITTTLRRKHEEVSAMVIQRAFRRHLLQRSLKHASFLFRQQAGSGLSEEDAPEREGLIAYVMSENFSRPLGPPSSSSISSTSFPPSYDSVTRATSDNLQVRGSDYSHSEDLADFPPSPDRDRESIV
In short: as §1

hERG = hERG (Homo sapiens, UniProt Q12809); experiment: in vitro; settings: 100% = no change, <100% = inhibition
In short: as §1

Nav1.7 = molecular target: T3, Nav1.7 (Homo sapiens, UniProt Q15858); experiment: cell-based; format: cell-based; settings: 100% = no change; for Activity of Nav1.7 with peptide, expressed as a percentage of the reference compound: peptide at 0.2 μM; for Activity of Nav1.7 with peptide (percentage of the reference compound): peptide at 20 μM
T3 construct: host or cells: HEK293 or CHO
T3 sequence (Q15858 whole entry): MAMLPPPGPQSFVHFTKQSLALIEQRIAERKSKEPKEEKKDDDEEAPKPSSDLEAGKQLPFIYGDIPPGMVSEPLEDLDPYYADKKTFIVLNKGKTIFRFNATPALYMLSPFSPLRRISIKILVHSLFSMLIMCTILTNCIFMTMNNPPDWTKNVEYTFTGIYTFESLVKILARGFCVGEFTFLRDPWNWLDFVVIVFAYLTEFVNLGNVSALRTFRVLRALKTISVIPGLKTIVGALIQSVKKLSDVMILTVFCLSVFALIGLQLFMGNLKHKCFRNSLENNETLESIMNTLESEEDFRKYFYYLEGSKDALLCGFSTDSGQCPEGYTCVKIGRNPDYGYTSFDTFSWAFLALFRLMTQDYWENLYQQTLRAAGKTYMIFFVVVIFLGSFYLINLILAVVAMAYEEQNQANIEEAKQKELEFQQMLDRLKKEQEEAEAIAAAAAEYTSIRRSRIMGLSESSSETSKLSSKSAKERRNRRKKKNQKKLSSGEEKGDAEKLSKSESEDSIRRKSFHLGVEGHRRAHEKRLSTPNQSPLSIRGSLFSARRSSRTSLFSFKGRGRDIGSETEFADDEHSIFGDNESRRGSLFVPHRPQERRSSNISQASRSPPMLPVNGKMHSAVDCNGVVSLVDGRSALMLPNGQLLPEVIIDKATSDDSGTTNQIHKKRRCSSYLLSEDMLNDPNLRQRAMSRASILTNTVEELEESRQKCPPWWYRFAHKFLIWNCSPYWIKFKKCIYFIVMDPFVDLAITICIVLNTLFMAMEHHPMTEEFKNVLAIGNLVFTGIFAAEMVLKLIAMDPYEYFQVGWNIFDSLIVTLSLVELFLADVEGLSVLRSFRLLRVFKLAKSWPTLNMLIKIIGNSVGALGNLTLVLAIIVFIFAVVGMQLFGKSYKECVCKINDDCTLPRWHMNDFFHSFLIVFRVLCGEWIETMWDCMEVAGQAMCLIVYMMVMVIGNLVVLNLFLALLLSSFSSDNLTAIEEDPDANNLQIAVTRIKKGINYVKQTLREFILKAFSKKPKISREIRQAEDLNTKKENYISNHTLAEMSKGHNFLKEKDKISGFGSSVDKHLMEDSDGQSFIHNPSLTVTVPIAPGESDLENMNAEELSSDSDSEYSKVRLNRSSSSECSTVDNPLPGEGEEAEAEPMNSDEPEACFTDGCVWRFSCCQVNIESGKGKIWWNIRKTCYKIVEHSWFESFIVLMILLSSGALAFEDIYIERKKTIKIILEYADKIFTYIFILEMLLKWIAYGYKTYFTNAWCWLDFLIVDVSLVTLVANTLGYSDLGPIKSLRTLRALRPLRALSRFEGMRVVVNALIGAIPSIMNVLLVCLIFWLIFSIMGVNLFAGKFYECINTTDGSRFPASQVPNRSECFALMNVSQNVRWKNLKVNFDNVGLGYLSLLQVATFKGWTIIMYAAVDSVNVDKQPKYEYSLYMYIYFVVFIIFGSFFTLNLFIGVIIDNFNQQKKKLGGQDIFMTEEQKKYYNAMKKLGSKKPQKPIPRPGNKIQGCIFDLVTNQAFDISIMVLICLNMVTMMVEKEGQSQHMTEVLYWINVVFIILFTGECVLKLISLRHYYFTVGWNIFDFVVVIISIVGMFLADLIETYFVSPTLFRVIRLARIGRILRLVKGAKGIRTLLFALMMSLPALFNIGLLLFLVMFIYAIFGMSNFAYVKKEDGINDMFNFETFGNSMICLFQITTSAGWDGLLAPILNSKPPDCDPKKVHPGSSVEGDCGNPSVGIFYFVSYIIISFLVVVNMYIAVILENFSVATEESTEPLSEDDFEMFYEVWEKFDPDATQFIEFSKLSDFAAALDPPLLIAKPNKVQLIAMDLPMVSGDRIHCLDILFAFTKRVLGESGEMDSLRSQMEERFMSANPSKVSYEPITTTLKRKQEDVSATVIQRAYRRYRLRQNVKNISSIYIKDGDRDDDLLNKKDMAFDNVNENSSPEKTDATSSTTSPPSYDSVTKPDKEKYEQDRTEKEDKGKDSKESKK

TRPV1 = molecular target: T4, TRPV1 (Homo sapiens, UniProt Q8NER1); experiment: Ion channel panel (IonWorks Barracuda): TRPV1; format: cell-based; settings: 100% = no change, <100% = inhibition
T4 construct: host or cells: HEK293 or CHO
In short: as §1

5HT3a = molecular target: T5, 5HT3a (Homo sapiens, UniProt P46098); experiment: Ion channel panel (IonWorks Barracuda): 5HT3a; format: cell-based
T5 construct: host or cells: HEK293 or CHO
T5 sequence (P46098 whole entry, looked up): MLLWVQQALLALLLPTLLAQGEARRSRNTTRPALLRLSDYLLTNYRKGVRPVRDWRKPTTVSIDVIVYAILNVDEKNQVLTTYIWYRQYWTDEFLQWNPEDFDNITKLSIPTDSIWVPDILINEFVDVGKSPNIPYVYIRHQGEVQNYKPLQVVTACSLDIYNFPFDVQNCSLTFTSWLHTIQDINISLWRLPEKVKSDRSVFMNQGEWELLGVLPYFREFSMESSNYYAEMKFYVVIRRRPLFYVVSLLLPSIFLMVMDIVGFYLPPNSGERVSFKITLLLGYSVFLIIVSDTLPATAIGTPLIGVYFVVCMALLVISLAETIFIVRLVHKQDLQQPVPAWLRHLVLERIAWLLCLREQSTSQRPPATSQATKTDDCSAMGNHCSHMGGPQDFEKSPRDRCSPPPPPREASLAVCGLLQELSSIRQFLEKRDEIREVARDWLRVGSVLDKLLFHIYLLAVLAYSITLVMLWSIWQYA
In short: as §1

NR2B = molecular target: T6, NR2B (Homo sapiens, UniProt Q13224); experiment: Ion channel panel (IonWorks Barracuda): NR2B; format: cell-based; settings: 100% = no change, <100% = inhibition
T6 construct: host or cells: HEK293 or CHO
In short: as §1

Kv1.2 = molecular target: T7, Kv1.2 (Homo sapiens, UniProt P16389); experiment: cell-based; format: cell-based; settings: 100% = no change, <100% = inhibition
T7 construct: host or cells: HEK293 or CHO
T7 sequence (P16389 whole entry): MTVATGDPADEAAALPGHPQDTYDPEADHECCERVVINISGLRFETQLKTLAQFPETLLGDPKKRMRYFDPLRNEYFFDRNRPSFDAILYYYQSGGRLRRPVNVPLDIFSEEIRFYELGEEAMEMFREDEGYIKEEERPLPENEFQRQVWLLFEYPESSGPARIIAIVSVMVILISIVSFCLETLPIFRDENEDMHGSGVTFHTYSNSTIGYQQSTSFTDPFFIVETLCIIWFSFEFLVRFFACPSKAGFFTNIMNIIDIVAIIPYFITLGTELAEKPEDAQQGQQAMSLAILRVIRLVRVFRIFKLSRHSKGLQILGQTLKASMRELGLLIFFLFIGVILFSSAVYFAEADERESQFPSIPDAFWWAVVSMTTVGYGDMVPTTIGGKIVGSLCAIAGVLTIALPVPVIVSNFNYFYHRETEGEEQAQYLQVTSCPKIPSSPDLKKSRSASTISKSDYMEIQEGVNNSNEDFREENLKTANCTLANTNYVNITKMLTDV
In short: as §1

Kv1.3 = molecular target: T8, Kv1.3 (Homo sapiens, UniProt P22001); experiment: cell-based; format: cell-based; settings: 100% = no change, <100% = inhibition
T8 construct: host or cells: HEK293 or CHO
T8 sequence (P22001 whole entry): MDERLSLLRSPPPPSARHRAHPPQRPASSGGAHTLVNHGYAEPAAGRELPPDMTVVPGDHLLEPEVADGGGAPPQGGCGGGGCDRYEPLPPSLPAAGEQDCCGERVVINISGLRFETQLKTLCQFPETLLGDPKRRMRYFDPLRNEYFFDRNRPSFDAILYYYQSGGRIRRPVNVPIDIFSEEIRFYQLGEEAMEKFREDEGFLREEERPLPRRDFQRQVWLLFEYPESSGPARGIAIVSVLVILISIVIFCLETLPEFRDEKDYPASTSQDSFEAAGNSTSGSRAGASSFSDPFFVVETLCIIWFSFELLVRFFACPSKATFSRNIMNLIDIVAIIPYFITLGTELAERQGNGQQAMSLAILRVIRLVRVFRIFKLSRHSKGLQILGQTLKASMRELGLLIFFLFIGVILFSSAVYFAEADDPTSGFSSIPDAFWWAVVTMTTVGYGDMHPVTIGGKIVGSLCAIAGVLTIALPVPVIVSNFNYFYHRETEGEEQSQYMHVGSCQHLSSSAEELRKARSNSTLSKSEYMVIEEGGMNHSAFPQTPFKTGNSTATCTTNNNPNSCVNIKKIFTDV
In short: as §1

Kv1.1 = molecular target: T9, Kv1.1 (Homo sapiens, UniProt Q09470); experiment: cell-based; format: cell-based; settings: 100% = no change, <100% = inhibition
T9 construct: host or cells: HEK293 or CHO
In short: as §1

NR2A = molecular target: T10, NR2A (Homo sapiens, UniProt Q12879); experiment: Ion channel panel (IonWorks Barracuda): NR2A; format: cell-based; settings: 100% = no change, <100% = inhibition
T10 construct: host or cells: HEK293 or CHO
In short: as §1

α3β4 = molecular target: T11, α3β4 (Homo sapiens, UniProt P30926+P32297); experiment: Ion channel panel (IonWorks Barracuda): α3β4; format: cell-based; settings: 100% = no change, <100% = inhibition
T11 construct: host or cells: HEK293 or CHO
In short: as §1

α4β2 = molecular target: T12, α4β2 (Homo sapiens, UniProt P17787+P43681); experiment: Ion channel panel (IonWorks Barracuda): α4β2; format: cell-based; settings: 100% = no change, <100% = inhibition
T12 construct: host or cells: HEK293 or CHO
In short: as §1

Cav2.1 = molecular target: T13, Cav2.1 (Homo sapiens, UniProt O00555); experiment: cell-based; settings: 100% = no change, <100% = inhibition
T13 construct: host or cells: HEK293 or CHO
In short: as §1

Cav2.2 = molecular target: T14, Cav2.2 (Homo sapiens, UniProt Q00975); experiment: cell-based; settings: 100% = no change, <100% = inhibition
T14 construct: host or cells: HEK293 or CHO
In short: as §1

Kv2.1 = molecular target: T15, Kv2.1 (Homo sapiens, UniProt Q14721); experiment: cell-based; settings: 100% = no change, <100% = inhibition
T15 construct: host or cells: HEK293 or CHO
In short: as §1

[1] = first of two Nav1.5 columns (probably TP1)
[2] = second of two Nav1.5 columns (probably TP2)
[3] = first of two Nav1.7 columns (probably TP1)
[4] = second of two Nav1.7 columns (probably TP2)

For “26 (GSVVIGQRCYRSPDCYSACKKLVGKATGKCTNGRCDC) [compound 26]”, the “Activity of TRPA1 with peptide, expressed as a percentage of the reference compound” value (TRPA1; peptide at 0.2 μM) was 109%, the “Activity of TRPA1 with peptide (percentage of the reference compound)” value (TRPA1; peptide at 20 μM) was 115% and the “Activity of GABA with peptide, expressed as a percentage of the reference compound” value (GABA; peptide at 0.2 μM) was 117%. The “Activity of GABA with peptide (percentage of the reference compound)” value (GABA; peptide at 20 μM) was 106%, the “Activity of Kir2.1 with peptide, expressed as a percentage of the reference compound” value (Kir2.1; peptide at 0.2 μM) was 102% and the “Activity of Kir2.1 with peptide (percentage of the reference compound)” value (Kir2.1; peptide at 20 μM) was 93%. For the same substance, the “Activity of Nav1.5 with peptide, expressed as a percentage of the reference compound” value (Nav1.5; [1]) was 92%, the “Activity of Nav1.5 with peptide, expressed as a percentage of the reference compound” value (Nav1.5; [2]) was 91% and the “Activity of Nav1.5 with peptide (percentage of the reference compound)” value (Nav1.5; [1]) was 90%. The “Activity of Nav1.5 with peptide (percentage of the reference compound)” value (Nav1.5; [2]) was 94%, the “Activity of hERG with peptide, expressed as a percentage of the reference compound” value (hERG; peptide at 0.2 μM) was 80% and the “Activity of hERG with peptide (percentage of the reference compound)” value (hERG; peptide at 20 μM) was 74%. For the same substance, the “Activity of Nav1.7 with peptide, expressed as a percentage of the reference compound” value (Nav1.7; [3]) was 81%, the “Activity of Nav1.7 with peptide, expressed as a percentage of the reference compound” value (Nav1.7; [4]) was 74% and the “Activity of Nav1.7 with peptide (percentage of the reference compound)” value (Nav1.7; [3]) was 73%. For the same substance, the “Activity of Nav1.7 with peptide (percentage of the reference compound)” value (Nav1.7; [4]) was 60%, the “Activity of TRPV1 with peptide, expressed as a percentage of the reference compound” value (TRPV1; peptide at 0.2 μM) was 116% and the “Activity of TRPV1 with peptide (percentage of the reference compound)” value (TRPV1; peptide at 20 μM) was 92%. For the same substance, the “Activity of 5HT3a with peptide (percentage of the reference compound)” value (5HT3a) was 96%, the “Activity of 5HT3a with peptide, expressed as a percentage of the reference compound” value (5HT3a) was 82% and the “Activity of NR2B with peptide, expressed as a percentage of the reference compound” value (NR2B; peptide at 0.2 μM) was 86%. The “Activity of NR2B with peptide (percentage of the reference compound)” value (NR2B; peptide at 20 μM) was 79%, the “Activity of Kv1.2 with peptide, expressed as a percentage of the reference compound” value (Kv1.2; peptide at 0.2 μM) was 79% and the “Activity of Kv1.2 with peptide (percentage of the reference compound)” value (Kv1.2; peptide at 20 μM) was 47%. The “Activity of Kv1.3 with peptide, expressed as a percentage of the reference compound” value (Kv1.3; peptide at 0.2 μM) was 94%, the “Activity of Kv1.3 with peptide (percentage of the reference compound)” value (Kv1.3; peptide at 20 μM) was 77% and the “Activity of Kv1.1 with peptide, expressed as a percentage of the reference compound” value (Kv1.1; peptide at 0.2 μM) was 66%. The “Activity of Kv1.1 with peptide (percentage of the reference compound)” value (Kv1.1; peptide at 20 μM) was 85%, the “Activity of NR2A with peptide, expressed as a percentage of the reference compound” value (NR2A; peptide at 0.2 μM) was 113% and the “Activity of NR2A with peptide (percentage of the reference compound)” value (NR2A; peptide at 20 μM) was 114%. The “Activity of a3b4 with peptide, expressed as a percentage of the reference compound” value (α3β4; peptide at 0.2 μM) was 88%, the “Activity of a3b4 with peptide (percentage of the reference compound)” value (α3β4; peptide at 20 μM) was 91% and the “Activity of a4b2 with peptide, expressed as a percentage of the reference compound” value (α4β2; peptide at 0.2 μM) was 85%. For the same substance, the “Activity of a4b2 with peptide (percentage of the reference compound)” value (α4β2; peptide at 20 μM) was 89%, the “Activity of Cav2.1 with peptide, expressed as a percentage of the reference compound” value (Cav2.1; peptide at 0.2 μM) was 115% and the “Activity of Cav2.1 with peptide (percentage of the reference compound)” value (Cav2.1; peptide at 20 μM) was 85%. For the same substance, the “Activity of Cav2.2 with peptide, expressed as a percentage of the reference compound” value (Cav2.2; peptide at 0.2 μM) was 103%, the “Activity of Cav2.2 with peptide (percentage of the reference compound)” value (Cav2.2; peptide at 20 μM) was 121% and the “Activity of Kv2.1 with peptide, expressed as a percentage of the reference compound” value (Kv2.1; peptide at 0.2 μM) was 98%. The “Activity of Kv2.1 with peptide (percentage of the reference compound)” value (Kv2.1; peptide at 20 μM) was 102%.

Source: US20200262877A1, “ION CHANNEL-BINDING PEPTIDES AND METHODS OF USE THEREOF” (priority 2017, published 2020)
